Source: article PMC6796883

Columns and labels:
Assay in all cases: ITC; 25 °C, MicroCal PEAQ-ITC; 50 μM protein in the cell titrated with 17 injections of 750 μM peptide; in the absence of NAD+; 'one set of binding sites' model
[1] = target: SIRT2Δ (human SIRT2 residues 34-356) (human) (UniProt Q8IXJ6)
[2] = target: CobBΔ (E. coli CobB residues 38-279) (E. coli) (UniProt P75960)
[3] = target: SIRT1Δ (human SIRT1 NAD+-dependent deacetylase domain 234-510 with C-terminal regulatory region 641-665) (human) (UniProt Q96EB6)
[4] = target: SIRT6 (human SIRT6 residues 1-355) (human) (UniProt Q8N6T7)
[5] = target: SIRT5Δ (human SIRT5 residues 34-302) (human) (UniProt Q9NXA8)
Sequence of SIRT5Δ (human SIRT5 residues 34-302) (human) (Q9NXA8 34-302, stated change not applied): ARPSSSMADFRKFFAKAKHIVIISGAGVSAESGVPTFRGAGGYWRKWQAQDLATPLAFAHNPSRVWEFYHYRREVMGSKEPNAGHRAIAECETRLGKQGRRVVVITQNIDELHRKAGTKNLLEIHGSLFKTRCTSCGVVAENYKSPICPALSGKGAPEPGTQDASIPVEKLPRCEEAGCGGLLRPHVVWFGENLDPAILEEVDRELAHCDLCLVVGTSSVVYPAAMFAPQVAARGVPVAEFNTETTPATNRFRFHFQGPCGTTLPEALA

Sequence of SIRT2Δ (human SIRT2 residues 34-356) (human) (Q8IXJ6 34-356, stated change not applied): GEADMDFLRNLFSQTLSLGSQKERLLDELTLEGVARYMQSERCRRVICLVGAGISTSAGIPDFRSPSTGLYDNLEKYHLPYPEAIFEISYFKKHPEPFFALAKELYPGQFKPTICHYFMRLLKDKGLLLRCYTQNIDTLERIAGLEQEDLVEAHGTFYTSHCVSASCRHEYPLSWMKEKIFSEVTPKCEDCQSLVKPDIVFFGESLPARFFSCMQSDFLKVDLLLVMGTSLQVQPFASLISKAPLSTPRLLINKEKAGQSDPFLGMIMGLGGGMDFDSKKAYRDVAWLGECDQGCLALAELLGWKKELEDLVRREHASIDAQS
Sequence of SIRT6 (human SIRT6 residues 1-355) (human) (Q8N6T7 whole entry, the tested form may be a part): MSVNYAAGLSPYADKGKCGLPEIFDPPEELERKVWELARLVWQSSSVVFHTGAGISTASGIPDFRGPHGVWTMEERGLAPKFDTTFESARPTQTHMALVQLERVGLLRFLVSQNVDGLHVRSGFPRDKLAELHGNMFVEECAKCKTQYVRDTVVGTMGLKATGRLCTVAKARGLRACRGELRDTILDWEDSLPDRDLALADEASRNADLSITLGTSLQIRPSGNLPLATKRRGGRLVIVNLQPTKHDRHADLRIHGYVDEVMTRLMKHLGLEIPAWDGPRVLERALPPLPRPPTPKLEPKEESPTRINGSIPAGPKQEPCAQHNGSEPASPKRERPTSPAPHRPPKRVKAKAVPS

Substance	Kd [1] [nM]	Kd [2] [nM]	Kd [3] [nM]	Kd [4] [nM]	Kd [5] [nM]
histone H3(1-15)K9oct peptide (from UniProt P68431 2-16)	–	200	–	700	–
histone H3(1-15)K9cr peptide (from UniProt P68431 2-16)	–	–	45400	–	–
histone H3(1-15)K9dec peptide (from UniProt P68431 2-16)	–	200	7000	54400	–
histone H3(1-15)K9myr peptide (from UniProt P68431 2-16)	800	50	–	–	–

Further lines, results first:

Kd [1] [nM]	Kd [2] [nM]	Kd [3] [nM]	Kd [4] [nM]	Kd [5] [nM]	Substance
6900	60	4900	–	–	histone H3(1-15)K9dod peptide (from UniProt P68431 2-16)
–	300	–	–	–	histone H3(1-15)K9hex peptide (from UniProt P68431 2-16)
–	200	–	–	–	histone H3(1-15)K9bu peptide (from UniProt P68431 2-16)
105000	800	–	–	–	histone H3(1-15)K9pr peptide (from UniProt P68431 2-16)
–	–	–	102000	153000	histone H3(1-15)K9ac peptide (from UniProt P68431 2-16)
